Target: chimeric receptor comprising mouse TNFR1 external domain (residues 1-210 of SEQ ID NO:1) linked to the transmembrane and intracellular domains of mouse RANK (residues 210-625 of SEQ ID NO:2) (mouse)
Experiment: cell-based or functional assay

Chain of chimeric receptor comprising mouse TNFR1 external domain (residues 1-210 of SEQ ID NO:1) linked to the transmembrane and intracellular domains of mouse RANK (residues 210-625 of SEQ ID NO:2) (mouse) (chain, as listed by the source mutant): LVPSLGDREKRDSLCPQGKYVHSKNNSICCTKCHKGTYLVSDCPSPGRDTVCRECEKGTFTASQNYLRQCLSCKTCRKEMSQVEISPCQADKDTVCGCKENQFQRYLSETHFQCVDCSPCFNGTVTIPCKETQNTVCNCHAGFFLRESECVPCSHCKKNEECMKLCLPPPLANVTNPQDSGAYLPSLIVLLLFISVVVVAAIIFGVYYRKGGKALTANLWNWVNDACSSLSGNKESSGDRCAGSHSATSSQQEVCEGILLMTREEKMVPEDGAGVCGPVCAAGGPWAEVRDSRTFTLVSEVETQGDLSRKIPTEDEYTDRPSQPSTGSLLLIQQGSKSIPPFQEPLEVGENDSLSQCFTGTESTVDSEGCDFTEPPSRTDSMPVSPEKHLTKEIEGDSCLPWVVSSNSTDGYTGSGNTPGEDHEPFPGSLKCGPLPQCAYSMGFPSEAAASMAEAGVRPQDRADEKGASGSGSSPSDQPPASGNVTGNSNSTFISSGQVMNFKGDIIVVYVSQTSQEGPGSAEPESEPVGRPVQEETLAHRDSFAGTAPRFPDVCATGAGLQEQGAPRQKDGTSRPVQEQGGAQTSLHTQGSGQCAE

“Recombinant mouse TNFα (410-TRNC-050, R&D Systems) (from UniProt P06804 80-235) (ligand)” showed an osteoclast formation; lowest TNFα concentration still active of 1 ng/mL.
